Measured values reported in patent US20220348651A1, “ENTPD2 ANTIBODIES, COMBINATION THERAPIES, AND METHODS OF USING THE ANTIBODIES AND COMBINATION THERAPIES” (Novartis AG, priority 2019, published 2022).

T1: RKO cells (Homo sapiens, UniProt Q9Y5L3)
T1 construct: colorectal cancer cells with endogenous ENTPD2 expression; host or cells: RKO
T1 sequence (Q9Y5L3 1-495): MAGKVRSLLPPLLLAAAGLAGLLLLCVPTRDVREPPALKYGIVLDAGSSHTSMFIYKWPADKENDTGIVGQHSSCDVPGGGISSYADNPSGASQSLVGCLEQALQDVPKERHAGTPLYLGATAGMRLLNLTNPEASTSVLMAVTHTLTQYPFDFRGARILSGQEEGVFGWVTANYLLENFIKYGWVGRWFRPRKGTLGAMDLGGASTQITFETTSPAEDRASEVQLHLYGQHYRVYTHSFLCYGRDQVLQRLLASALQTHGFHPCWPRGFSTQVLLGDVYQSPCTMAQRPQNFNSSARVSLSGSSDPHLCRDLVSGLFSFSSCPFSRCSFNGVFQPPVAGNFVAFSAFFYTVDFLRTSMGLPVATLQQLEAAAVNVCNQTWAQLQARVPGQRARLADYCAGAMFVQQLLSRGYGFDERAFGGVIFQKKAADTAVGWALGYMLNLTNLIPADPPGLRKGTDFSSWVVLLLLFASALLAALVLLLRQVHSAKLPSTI


Columns and labels:
[1] = tested on: B16F10 tumor model; experiment: Syngeneic B16F10 tumor model, combination with anti-PD-1 Ab; tumor T cell influx by flow cytometry; format: in vivo, C57BL/6 mice
Procedure: B16F10 model was established in female C57BL/6 mice by subcutaneous injection of 0.5×10^6 cells into the right flank of each mouse. On day 7 once tumors reached approximately 30 mm^3, mice were randomized according to tumor volume into treatment groups (n=10 per group). Mice received treatment of either anti-mouse ENTPD2 mAb13 at a final dose 15 mg/kg, anti-PD-1 Ab (clone RMP1-14 Bio X Cell, West Lebanon, N.H.) i.p. at a final dose of 10 mg/kg or the combination of both treatments on days 1, 5, and 8. All doses were adjusted to individual mouse body weights.
In order to understand the impact of treatments on the tumor microenvironment, mice were euthanized on day 8 and tumors were dissociated in HyClone RPMI1640 media (GE Healthcare, Pittsburg, Pa.) using gentleMacs C-tubes (Miltenyi Biotec, Auburn, Calif.) on the gentleMacs Octo Dissociator (Miltenyi Biotec, Auburn, Calif.). Approximately 2×10^6 dissociated tumor cells were blocked with rat anti-mouse CD16/CD32 Ab (Biolegend, San Diego, Calif.) to reduce non-specific FcγRIII/II binding and subsequently stained with the following cocktail of Abs: rat anti-mouse CD45-BUV395 (clone 30-F11) (BD Biosciences, San Jose, Calif.), rat anti-mouse CD8a-BUV737 (clone 53-6.7) (BD Biosciences, San Jose, Calif.), rat anti-mouse CD4-BV510 (clone RM4-5) (BD Bioscience, San Jose, Calif.), anti-mouse CD69-PercPCy5.5 (clone H1-2F3) (Biolegend, San Diego, Calif.) and rat anti-mouse CD25-eFluor450 (clone eBio3C7) (eBioscience, San Diego, Calif.) at the manufacturers' recommended dilutions. All incubations and washes were performed in FACS Buffer composed of 1× HyClone Phosphate Buffered Saline (GE Healthcare, Pittsburg, PA), 1% HyClone Fetal Bovine Serum (GE Healthcare, Pittsburg, Pa.), 2 mM EDTA (ThermoFisher, Waltham Mass.). After staining with the cell surface antigen antibody cocktail, dissociated tumor cells were washed in FACS buffer, fixed and permeabilized using the eBioscience Foxp3/Transcription Factor Staining Buffer Kit (ThermoFisher, Waltham Mass.) to allow for intracellular staining with the mouse anti-mouse FOXP3-eFluor660 (clone 150D/E4) (eBioscience, San Diego, Calif.).

[2] = molecular target: T1, RKO cells; experiment: FACS binding to RKO cells with endogenous ENTPD2; details: read-out: Apparent FACS Affinity
Procedure: FACS screening: Specific binding of candidate antibodies to endogenously expressed ENTPD2 was assessed by flow cytometry. Cells were rinsed thoroughly with 1×PBS and treated with Accutase (Millipore #SCR005) to lift from growth plates and resuspended at approximately 1×10^5 cells/90 μL in 1× FACS buffer (2% FBS+0.1% NaN3 in PBS). In a 96-well U-bottom plate, 10 μL of 10× antibody solution in FACS buffer was pre-seeded and 90 μL of cell suspension was added. Cell were incubated for 30 minutes at 4° C., washed 1× with cold PBS and resuspended in 100 μL of 1:500 secondary antibody 1× FACS buffer (Allophycocyanin conjugated F(ab′)2 goat anti-human IgG, Fcγ specific; Jackson Immunoresearch, Cat#109-136-098). After additional incubation for 15 min at 4° C., cells were washed twice with PBS and resuspended in 100 μL of 1×FACS buffer with 4 μg/mL propidium iodide (Life Technologies, Cat#P3566). Geometric mean fluorescence intensity was calculated on live single cells using FlowJo software.

[3] = combination with anti-PD-1 Ab, tumor, day 8

Row | Molecule | anti-tumor efficacy ([1]; alone, mAb13 15 mg/kg, anti-PD-1 Ab 10 mg/kg i.p., days 1, 5, 8) | tumor growth relative to No Treatment control ([1]; combination of mAb13 15 mg/kg and anti-PD-1 Ab 10 mg/kg) | influx of activated CD4 T-helper cells (CD45+ CD8-CD4+ FOXP3-CD69+ CD25+), increase vs No Treatment [1, 3] | influx of activated CD8 T cells (CD45+ CD4-CD8+ CD69+ CD25+), change vs No Treatment [1, 3] | EC50 [2] [pM]
1 | mAb13: anti-mouse ENTPD2 antibody; HC SEQ ID NO: 193, LC SEQ ID NO: 204 (antibody) heavy: QVQLVQSGAELKQPGQSVKISCKASGYTFTHYGMNWVKQAPGQGLKWMGWINTDTGNPTYADDFKGRFVFSLDTSVSTAYLQISNLKNEDTATYYCVRYGTLYSGYGFFFDSWGQGTLVTVSSAKTTAPSVYPLAPVCGDTTGSSVTLGCLVKGYFPEPVTLTWNSGSLSSGVHTFPAVLQSDLYTLSSSVTVTSSTWPSQSITCNVAHPASSTKVDKKIEPRGPTIKPCPPCKCPAPNLLGGPSVFIFPPKIKDVLMISLSPIVTCVVVDVSEDDPDVQISWFVNNVEVHTAQTQTHREDYNSTLRVVSALPIQHQDWMSGKEFKCKVNNKDLPAPIERTISKPKGSVRAPQVYVLPPPEEEMTKKQVTLTCMVTDFMPEDIYVEWTNNGKTELNYKNTEPVLDSDGSYFMYSKLRVEKKNWVERNSYSCSVVHEGLHNHHTTKSFSRTPGK light: DIMMTQSPSSLSVSAGEKATITCKSSQSLFNSNTNKNYLNWYLQKPGQSPKLLFYYASTRHTGVPDRFIGSGSGTDFTLTITSVQDEDLADYYCQQWYSYPWTFGPGTKLEIKRADAAPTVSIFPPSSEQLTSGGASVVCFLNNFYPKDINVKWKIDGSERQNGVLNSWTDQDSKDSTYSMSSTLTLTKDEYERHNSYTCEATHKTSTSPIVKSFNRNEC | No significant anti-tumor efficacy | significant reduction in tumor growth | 7.0 -fold | 5.8 -fold | –
2 | mAb7: humanized anti-human ENTPD2 antibody from mAb17; VH SEQ ID NO: 25, VL SEQ ID NO: 78 (antibody, V domains shown) VH: QVQLVQSGAEVVKPGASVKISCKASGYTFTDYNMDWVKQAPGQRLEWIGDINPKYDISTYNQQFKGKATITVDKSASTAYMELSSLRSEDTAVYYCARRGFFLYYGINYYYFDVWGQGTLVTVSS VL: EIVLTQSPATLSASPGEEITLSCSASSSVSYIHWYQQKPGQAPRLLIYSTSNLASGIPARFSGSGSGTFYTLTISSVEPEDAAVYYCHQWSSYPWTFGGGTKLEIK | – | – | – | – | 400
